No end group written: not given here.
Molecular target: T1, cytosolic domain of yeast Tom70 (His-Tom70_(38–617)) (yeast (Saccharomyces cerevisiae), UniProt P07213 38-617)
T1 construct: Tom70, yeast, cytosolic domain, residues 38-617 of the protein of 617 amino acids; plasmid pET10N-Tom70(38–617); also called Tom70cd; isolated Tom70; source: E. coli BL21(DE3), purified (HisTrap, size exclusion; or Ni-NTA beads, batch method); not shown: His tag, N-terminal, kept
T1 sequence (looked up): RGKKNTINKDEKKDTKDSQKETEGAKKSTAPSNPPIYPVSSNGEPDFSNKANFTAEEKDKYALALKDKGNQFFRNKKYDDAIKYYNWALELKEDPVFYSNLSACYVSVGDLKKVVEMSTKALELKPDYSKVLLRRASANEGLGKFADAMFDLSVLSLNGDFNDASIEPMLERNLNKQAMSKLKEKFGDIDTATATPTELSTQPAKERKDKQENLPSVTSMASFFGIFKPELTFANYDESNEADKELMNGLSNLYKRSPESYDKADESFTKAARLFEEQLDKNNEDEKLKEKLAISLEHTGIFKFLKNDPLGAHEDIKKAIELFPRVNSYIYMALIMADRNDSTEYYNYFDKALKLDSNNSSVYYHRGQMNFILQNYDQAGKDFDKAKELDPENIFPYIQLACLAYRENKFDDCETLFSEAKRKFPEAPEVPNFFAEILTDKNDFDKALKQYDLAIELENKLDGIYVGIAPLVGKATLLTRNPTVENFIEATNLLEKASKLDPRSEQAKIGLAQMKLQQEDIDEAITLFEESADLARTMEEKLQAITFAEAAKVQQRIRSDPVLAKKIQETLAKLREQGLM
Experiment: pull-down; purified His-Tom70cd (50 pmol per 100 μl) pre-bound to Ni-NTA beads, incubated 40 min at 30 °C with typically 7% (v/v) reticulocyte lysate containing the [35S]-labelled protein; 10 mM MOPS/KOH, 20 mM imidazole, 150 mM KCl, 1% BSA, pH 7.2; eluted with 1 M imidazole, SDS-PAGE, phosphorimager; in some samples the bead-bound Tom70cd was pretreated with NEM and washed before the lysate was added
Details: one partner purified

percent of the total radiolabelled protein bound: < 1%
B1: ML3-DHFR (matrix loop of AAC module III, residues 238–277, fused to DHFR) (domain or fragment, Neurospora crassa, UniProt P02723 238-277, looked up)
chain: PLDTIRRRMMMTSGEAVKYKSSFDAASQIVAKEGVKSLFK
modifications: also: fused to DHFR, [35S]-methionine label
notes: ADP/ATP carrier (AAC), Neurospora crassa, residues 238-277; plasmid pYES2-AAC(238–277)-DHFR; also called the construct containing only the matrix loop; AAC(238–277)-DHFR; source: in vitro translated (TNT coupled reticulocyte lysate, with [35S]-methionine), in lysate

Reference: article PMC7596997, “The selectivity filter of the mitochondrial protein import machinery” (BMC Biology, 2020)
